Assay results reported in patent US20220401560A1, “PEPTIDE ENCAPSULATING FERRITIN” (Ajinomoto Co., Inc., priority 2019, published 2022).
No end group written: not given here.

Target: T1, ferritin (FTH) (Homo sapiens, UniProt P02794)
T1 construct: made in house; host or cells: Escherichia coli BL21 (DE3), plasmid pET20-FTH
Assay: Encapsulation of fluorescent dye-modified peptide into FTH, column chromatography with absorbance at 480 nm and LC-MS
Experimental: Of a 50 mM glycine hydrochloride buffer (pH 2.3) that contains FTH (chemical formula weight: 509,421) at a final concentration of 5 mg/mL and the peptide at a final concentration of 0.5 mM, 0.5 mL was left to stand at room temperature for 15 minutes. Next, 50 μL of a 1 M Tris hydrochloride buffer (pH 9.0) was added for neutralization, and the resulting solution was left to stand at room temperature for 3 hours. After the standing, the resulting solution was centrifuged (at 15,000 rpm for one minute). Then, the supernatant was collected and the volume was increased up to 3 mL with a 10 mM Tris hydrochloride buffer (pH 8). The resulting solution was injected into the HiPrep 26/60 Sephacryl S-300 HR column (GE Healthcare Inc.) equilibrated with a 10 mM Tris-HCl buffer (pH 8.0) to separate and purify 24-mer FTH by size at a flow rate of 1.3 mL/minute. The purified ferritin was analyzed using a HiPrep 16/60 Sephacryl S-300 HR column (GE Healthcare Inc.) equilibrated with a 10 mM Tris-HCl buffer (pH 8.0) at a flow rate of 0.5 mL/minute and confirmed as the absorbance at 480 nm unobservable from FTH only, at the same position as that of a peak of FTH.
The solution containing the FTH was concentrated to 0.25 mL by centrifugal ultrafiltration using Vivaspin 20-100K (GE Healthcare Inc.). […] For the LC-MS analysis, 50 μL of a 1 M glycine hydrochloride buffer (pH 2.3) was added to 50 μL of the sample solution and then the resulting solution was left to stand at room temperature for 15 minutes. To the solution 900 μL of ethanol was added. Next, the resulting solution was stirred vigorously and then centrifuged (at 15,000 rpm for five minutes) to collect its supernatant. The supernatant was analyzed using LCMS-2020 (Shimadzu Corporation) as LC-MS, inertsil (Registered trademark) ODS-3 with a particle diameter of 2 μm and 2.1 mm×50 mm (GL science) as a column. Into the column, 10 μL of the sample was injected, and eluded at a flow rate of 0.2 mL/min for 10 minutes such that a mixing ratio of a solution A (0.1% formic acid/99.9% acetonitrile) and a solution B (50% water/50% acetonitrile) was from 95:5 to 95:5. The concentration of the contained protein was determined using a protein assay CBB solution (Nacalai Tesque, Inc.) in terms of bovine albumin as a standard. The concentration of the encapsulated peptide was determined based on the absorbance at 480 nm of the fluorescent dye FAM to which PKC-F is modified.
First, the construction of FTH encapsulating two kinds of fluorescent dye-modified peptides [5(6)—FAM-[…] (SEQ ID NO: 10), FAM-SV40, chemical formula weight 1,516, and 5(6)—FAM-[…] […] (SEQ ID NO: 11), FAN-Np, chemical formula weight 384] was attempted. 0.5 mL of a 50 mM glycine hydrochloride buffer (pH 2.3) that contains FTH (chemical formula weight 509,421) at a final concentration of 5 mg/mL and a peptide at a final concentration of 0.5 mM, was left to stand at room temperature for 15 minutes. Next, 50 μL of a 1 M Tris hydrochloride buffer (pH 9.0) was added for neutralization, and the resulting solution was left to stand at room temperature for 3 hours. […] The absorbance at […] was confirmed at the same elusion position as that of ferritin 24-mer, for ferritin that was used for the operation to encapsulate FAM-SV40 therein. […] Next, the peptide amount of FAM-SV40 encapsulated in purified ferritin was quantified based on the 480 nm absorbance and by CBB staining with use of ferritin-amount-albumin as a standard.

T1 sequence (P02794 whole entry): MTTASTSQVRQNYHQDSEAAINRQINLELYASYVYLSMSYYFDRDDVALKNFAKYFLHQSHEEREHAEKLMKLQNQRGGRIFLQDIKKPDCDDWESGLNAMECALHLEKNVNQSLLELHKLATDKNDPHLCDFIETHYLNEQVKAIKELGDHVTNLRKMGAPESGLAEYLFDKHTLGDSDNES

5(6)-FAM-CGGPKKKRKVG (SEQ ID NO: 10) ({5(6)‑FAM}-CGGPKKKRKVG) [FAM-SV40, fluorescent dye-modified peptide, linear]
molecules of peptide encapsulated in one molecule of ferritin on average (FTH, from molar ratio): 2.5 molecules | encapsulation of peptide in FTH (absorbance at 480 nm at elution position of 24-mer FTH, LC-MS): encapsulated in ferritin
